Laboratory results reported in publication PMC8136917, “The glycosyltransferase UGT76B1 modulates N-hydroxy-pipecolic acid homeostasis and plant immunity” (The Plant Cell, 2021).

Columns and labels:
[1] = substrate: O=C(O)c1ccccc1O; test: UPLC-nanoESI-QTRAP-MS of product SAG; Hill regression; format: biochemical, Arabidopsis thaliana; settings: UDP-glucose co-substrate (2 mM in methods); 5 min at 25°C (Figure 6 legend; methods say 15 min at 30°C)
[2] = substrate: O=C(O)[C@@H]1CCCCN1O; test: UPLC-nanoESI-QTRAP-MS of product NHP-OGlc; Hill regression; format: biochemical, Arabidopsis thaliana; settings: UDP-glucose co-substrate (2 mM in methods); 5 min at 25°C (Figure 6 legend; methods say 15 min at 30°C)

B1: UGT76B1 (Arabidopsis thaliana) (protein)
chain: METRETKPVIFLFPFPLQGHLNPMFQLANIFFNRGFSITVIHTEFNSPNSSNFPHFTFVSIPDSLSEPESYPDVIEILHDLNSKCVAPFGDCLKKLISEEPTAACVIVDALWYFTHDLTEKFNFPRIVLRTVNLSAFVAFSKFHVLREKGYLSLQETKADSPVPELPYLRMKDLPWFQTEDPRSGDKLQIGVMKSLKSSSGIIFNAIEDLETDQLDEARIEFPVPLFCIGPFHRYVSASSSSLLAHDMTCLSWLDKQATNSVIYASLGSIASIDESEFLEIAWGLRNSNQPFLWVVRPGLIHGKEWIEILPKGFIENLEGRGKIVKWAPQPEVLAHRATGGFLTHCGWNSTLEGICEAIPMICRPSFGDQRVNARYINDVWKIGLHLENKVERLVIENAVRTLMTSSEGEEIRKRIMPMKETVEQCLKLGGSSFRNLENLIAYILSF
[1]
  Km: 75 ± 2 µM
[2]
  Km: 191 ± 14 µM
